The results in this text go back to US20040071656A1, “Modulation of heat-shock-protein-based immunotherapies” (priority 2001, published 2004).

This experiment addresses T1, exoplasmic domain of human CD40 (GST-CD40) (Homo sapiens, UniProt P25942).
T1 construct: The cDNA for the exoplasmic domain of CD40 (amino acids 20-212); made in house; host or cells: E. coli, pGEX-2T
The experiment is described as follows: GST-CD40 pull-down of endogenous heat shock proteins from Hela cell lysate. It counts as binding. The settings on record: 80 or 400 pmol GST-CD40, immunoblot. As for the experimental part: Binding assays with GST-CD40. For binding of endogenous Hsp70 and Hsc70 from Hela cell lysate, Hela cells were lysed as described above and centrifuged at 100,000 g at 4° C. for 1 h. 20 μl bed volume of Glutathione Sepharose 4 Fast Flow (Amersham Pharmacia) per sample were preincubated with 80 pmol or 400 pmol of GST or GST-CD40 fusion protein in 50 μl binding buffer. Unbound protein was removed by washing three times with PBS. The beads were treated with 1% BSA/PBS to avoid non-specific binding, and than incubated with 150 μl of Hela cell lysate in the presence of 2 mM DTT for 20 min at 16° C. […] 10 μl of the eluates was subjected to SDS-PAGE and analyzed by immunoblotting using an anti-Hsc/Hsp70 antibody and an anti-Hsp90: antibody (SPA822 and SPA835, Stressgen). […]
Details for FIG. 3. […] Thereafter samples were affinity purified on glutathione-Sepharose as outlined in Experimental Procedures, subjected to SDS-PAGE and analyzed by immunoblotting with antibodies directed against Hsc70 and Hsp70 (upper lanes), and against Hsp90 (lower lanes). […] After affinity purification samples were analyzed by immunoblotting as described in A, using antibodies directed against the His6-tag. […] Protein bound to Hsp70 was analyzed by affinity purification on Ni-NTA-agarose and immunoblotting with antibodies directed against CD40.
(In general: A western blot detects proteins with antibodies after separation by electrophoresis.)

T1 sequence (P25942 20-212): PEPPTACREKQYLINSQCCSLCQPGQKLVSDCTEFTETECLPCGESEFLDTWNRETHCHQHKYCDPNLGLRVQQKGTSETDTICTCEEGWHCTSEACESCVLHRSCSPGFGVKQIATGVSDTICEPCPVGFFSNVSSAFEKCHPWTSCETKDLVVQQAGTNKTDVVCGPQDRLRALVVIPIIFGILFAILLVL

Regarding “Hsp70: Recombinant human heat shock protein 70, expressed and purified as His-tagged protein”, the “binding to GST-CD40 from Hela-cell lysates” value is “bound to GST-CD40 in a concentration dependent manner”.
